T1: DFNB31_1, Q9P202
T1 sequence (Q9P202 135-233, limits assumed, looked up): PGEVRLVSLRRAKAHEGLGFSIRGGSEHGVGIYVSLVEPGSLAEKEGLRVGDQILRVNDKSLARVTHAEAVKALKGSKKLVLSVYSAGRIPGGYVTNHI

T2: DLG3_3, Q92796
T2 sequence (Q92796 374-475, limits assumed, looked up): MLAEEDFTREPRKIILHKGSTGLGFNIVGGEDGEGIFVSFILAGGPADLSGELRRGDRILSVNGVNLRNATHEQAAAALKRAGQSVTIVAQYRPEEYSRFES

T3: GRIP1_4, Q9Y3R0
T3 sequence (Q9Y3R0 467-571, limits assumed, looked up): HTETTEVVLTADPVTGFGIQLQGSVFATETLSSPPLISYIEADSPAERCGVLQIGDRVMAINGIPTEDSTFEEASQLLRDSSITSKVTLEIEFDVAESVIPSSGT

T4: LNX2_2, Q8N448
T4 sequence (Q8N448 334-432, limits assumed, looked up): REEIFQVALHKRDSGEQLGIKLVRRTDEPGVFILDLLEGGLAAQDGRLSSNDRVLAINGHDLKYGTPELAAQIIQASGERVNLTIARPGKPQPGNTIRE

T5: MPP2, Q14168
T5 sequence (Q14168 180-250, limits assumed, looked up): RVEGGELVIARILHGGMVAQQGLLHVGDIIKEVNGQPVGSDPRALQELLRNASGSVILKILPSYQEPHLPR

T6: PARD3B_1, Q8TEW8
T6 sequence (Q8TEW8 196-299, limits assumed, looked up): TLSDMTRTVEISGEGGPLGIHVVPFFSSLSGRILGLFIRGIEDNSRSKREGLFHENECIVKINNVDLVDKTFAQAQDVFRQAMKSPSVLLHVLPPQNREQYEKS

T7: PDZD7_3, Q9H5P4
T7 sequence (Q9H5P4 857-944, limits assumed, looked up): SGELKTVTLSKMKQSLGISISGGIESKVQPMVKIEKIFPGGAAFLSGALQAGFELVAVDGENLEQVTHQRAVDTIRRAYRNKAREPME

T8: PTPN13_1, Q12923
T8 sequence (Q12923 1088-1188, limits assumed, looked up): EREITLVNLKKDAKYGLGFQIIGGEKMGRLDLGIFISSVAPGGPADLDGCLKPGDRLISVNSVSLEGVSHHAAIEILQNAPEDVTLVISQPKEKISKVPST

T9: SHANK1, Q9Y566
T9 sequence (Q9Y566 658-767, limits assumed, looked up): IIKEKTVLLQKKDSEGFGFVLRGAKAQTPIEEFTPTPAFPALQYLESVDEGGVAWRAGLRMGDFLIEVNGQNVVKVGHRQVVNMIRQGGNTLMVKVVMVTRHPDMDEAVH

T10: SIPA1L2, Q9P2F8
T10 sequence (Q9P2F8 945-1036, limits assumed, looked up): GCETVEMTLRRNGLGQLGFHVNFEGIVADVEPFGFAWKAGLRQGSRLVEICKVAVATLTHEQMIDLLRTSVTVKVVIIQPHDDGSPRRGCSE

T11: SNTG2, Q9NY99
T11 sequence (Q9NY99 68-166, limits assumed, looked up): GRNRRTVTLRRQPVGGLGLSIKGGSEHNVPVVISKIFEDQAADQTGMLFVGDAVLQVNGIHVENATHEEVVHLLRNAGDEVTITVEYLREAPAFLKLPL


biological target: ARHGEF12, Q9NZN5-2; assay: holdup assay; set-up: key: below the threshold = too weak to quantify, mostly under pKd 3.1 to 4; conditions: plain residues with an end cap or a label only (N-terminal biotin on a linker: ado-ado)
Sequence (Q9NZN5 other isoform, or with tags, fused parts or gaps): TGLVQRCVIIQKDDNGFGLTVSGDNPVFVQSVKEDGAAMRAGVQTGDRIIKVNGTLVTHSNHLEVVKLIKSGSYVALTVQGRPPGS

Binder | pKd
SKENVQETQI [LRRC4B, Q9NT99] | 4.4
GQEEQVTTRL [TRPC5, Q9UL62] | 4.9

biological target: CASK, O14936; assay: holdup assay; set-up: key: below the threshold = too weak to quantify, mostly under pKd 3.1 to 4; conditions: plain residues with an end cap or a label only (N-terminal biotin on a linker: ado-ado)
Sequence (O14936 487-570): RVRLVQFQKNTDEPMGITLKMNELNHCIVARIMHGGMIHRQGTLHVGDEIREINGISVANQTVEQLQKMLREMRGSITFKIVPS

Binder | pKd
SKENVQETQI [LRRC4B, Q9NT99] | below the threshold
GQEEQVTTRL [TRPC5, Q9UL62] | below the threshold

biological target: T1, DFNB31_1, Q9P202; assay: holdup assay; set-up: key: below the threshold = too weak to quantify, mostly under pKd 3.1 to 4; conditions: plain residues with an end cap or a label only (N-terminal biotin on a linker: ado-ado)

Binder | pKd
SKENVQETQI [LRRC4B, Q9NT99] | 5.32
GQEEQVTTRL [TRPC5, Q9UL62] | 4.42

biological target: T2, DLG3_3, Q92796; assay: holdup assay; set-up: key: below the threshold = too weak to quantify, mostly under pKd 3.1 to 4; conditions: plain residues with an end cap or a label only (N-terminal biotin on a linker: ado-ado)

Binder | pKd
SKENVQETQI [LRRC4B, Q9NT99] | 3.68
GQEEQVTTRL [TRPC5, Q9UL62] | below the threshold

biological target: FRMPD4, Q14CM0; assay: holdup assay; set-up: key: below the threshold = too weak to quantify, mostly under pKd 3.1 to 4; conditions: plain residues with an end cap or a label only (N-terminal biotin on a linker: ado-ado)
Sequence (Q14CM0 67-160): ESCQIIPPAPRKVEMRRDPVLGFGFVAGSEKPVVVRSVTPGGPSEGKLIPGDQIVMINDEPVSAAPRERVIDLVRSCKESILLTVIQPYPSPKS

Binder | pKd
SKENVQETQI [LRRC4B, Q9NT99] | below the threshold
GQEEQVTTRL [TRPC5, Q9UL62] | 4.29

biological target: GRASP, Q7Z6J2; assay: holdup assay; set-up: key: below the threshold = too weak to quantify, mostly under pKd 3.1 to 4; conditions: plain residues with an end cap or a label only (N-terminal biotin on a linker: ado-ado)
Sequence (Q7Z6J2 96-193): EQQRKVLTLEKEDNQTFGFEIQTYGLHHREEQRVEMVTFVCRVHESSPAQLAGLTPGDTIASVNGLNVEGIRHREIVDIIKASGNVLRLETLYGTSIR

Binder | pKd
SKENVQETQI [LRRC4B, Q9NT99] | below the threshold
GQEEQVTTRL [TRPC5, Q9UL62] | 4.63

biological target: GRID2IP_2, A4D2P6; assay: holdup assay; set-up: key: below the threshold = too weak to quantify, mostly under pKd 3.1 to 4; conditions: plain residues with an end cap or a label only (N-terminal biotin on a linker: ado-ado)
Sequence (A4D2P6 272-370): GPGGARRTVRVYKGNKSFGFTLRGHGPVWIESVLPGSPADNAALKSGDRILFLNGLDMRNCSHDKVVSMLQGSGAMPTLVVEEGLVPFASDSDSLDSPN

Binder | pKd
SKENVQETQI [LRRC4B, Q9NT99] | 3.86
GQEEQVTTRL [TRPC5, Q9UL62] | 4.44

biological target: T3, GRIP1_4, Q9Y3R0; assay: holdup assay; set-up: key: below the threshold = too weak to quantify, mostly under pKd 3.1 to 4; conditions: plain residues with an end cap or a label only (N-terminal biotin on a linker: ado-ado)

Binder | pKd
SKENVQETQI [LRRC4B, Q9NT99] | below the threshold
GQEEQVTTRL [TRPC5, Q9UL62] | below the threshold

biological target: IL16_1, Q14005; assay: holdup assay; set-up: key: below the threshold = too weak to quantify, mostly under pKd 3.1 to 4; conditions: plain residues with an end cap or a label only (N-terminal biotin on a linker: ado-ado)
Sequence (Q14005 210-306): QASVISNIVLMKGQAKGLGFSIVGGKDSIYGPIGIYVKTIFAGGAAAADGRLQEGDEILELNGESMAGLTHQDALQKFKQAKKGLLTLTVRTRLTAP

Binder | pKd
SKENVQETQI [LRRC4B, Q9NT99] | below the threshold
GQEEQVTTRL [TRPC5, Q9UL62] | below the threshold

biological target: Inadl_9, Q8NI35; assay: holdup assay; set-up: key: below the threshold = too weak to quantify, mostly under pKd 3.1 to 4; conditions: plain residues with an end cap or a label only (N-terminal biotin on a linker: ado-ado)
Sequence (Q8NI35 1530-1615): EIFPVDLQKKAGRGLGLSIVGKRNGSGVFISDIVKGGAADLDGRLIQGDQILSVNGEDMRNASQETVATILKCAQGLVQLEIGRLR

Binder | pKd
SKENVQETQI [LRRC4B, Q9NT99] | below the threshold
GQEEQVTTRL [TRPC5, Q9UL62] | below the threshold

biological target: LDB3, O75112; assay: holdup assay; set-up: key: below the threshold = too weak to quantify, mostly under pKd 3.1 to 4; conditions: plain residues with an end cap or a label only (N-terminal biotin on a linker: ado-ado)
Sequence (O75112 1-94): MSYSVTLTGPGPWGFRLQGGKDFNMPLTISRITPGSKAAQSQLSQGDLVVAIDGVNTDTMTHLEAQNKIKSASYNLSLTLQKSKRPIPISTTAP

Binder | pKd
SKENVQETQI [LRRC4B, Q9NT99] | below the threshold
GQEEQVTTRL [TRPC5, Q9UL62] | below the threshold

biological target: LNX1_1, Q8TBB1; assay: holdup assay; set-up: key: below the threshold = too weak to quantify, mostly under pKd 3.1 to 4; conditions: plain residues with an end cap or a label only (N-terminal biotin on a linker: ado-ado)
Sequence (Q8TBB1 261-371): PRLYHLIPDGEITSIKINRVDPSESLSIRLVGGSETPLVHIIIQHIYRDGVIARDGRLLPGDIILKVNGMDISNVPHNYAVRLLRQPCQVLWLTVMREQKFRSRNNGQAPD

Binder | pKd
SKENVQETQI [LRRC4B, Q9NT99] | below the threshold
GQEEQVTTRL [TRPC5, Q9UL62] | below the threshold

biological target: T4, LNX2_2, Q8N448; assay: holdup assay; set-up: key: below the threshold = too weak to quantify, mostly under pKd 3.1 to 4; conditions: plain residues with an end cap or a label only (N-terminal biotin on a linker: ado-ado)

Binder | pKd
SKENVQETQI [LRRC4B, Q9NT99] | below the threshold
GQEEQVTTRL [TRPC5, Q9UL62] | below the threshold

biological target: MAGI1_1, Q96QZ7; assay: holdup assay; set-up: key: below the threshold = too weak to quantify, mostly under pKd 3.1 to 4; conditions: plain residues with an end cap or a label only (N-terminal biotin on a linker: ado-ado)
Sequence (Q96QZ7 1-106): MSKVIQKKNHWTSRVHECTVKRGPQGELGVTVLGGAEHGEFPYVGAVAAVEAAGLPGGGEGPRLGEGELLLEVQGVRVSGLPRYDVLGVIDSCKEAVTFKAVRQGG

Binder | pKd
SKENVQETQI [LRRC4B, Q9NT99] | below the threshold
GQEEQVTTRL [TRPC5, Q9UL62] | below the threshold

biological target: MAGI2_6, Q86UL8; assay: holdup assay; set-up: key: below the threshold = too weak to quantify, mostly under pKd 3.1 to 4; conditions: plain residues with an end cap or a label only (N-terminal biotin on a linker: ado-ado)
Sequence (Q86UL8 1141-1229): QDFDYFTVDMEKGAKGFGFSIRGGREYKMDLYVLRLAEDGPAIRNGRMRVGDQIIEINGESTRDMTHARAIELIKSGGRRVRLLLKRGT

Binder | pKd
SKENVQETQI [LRRC4B, Q9NT99] | 3.92
GQEEQVTTRL [TRPC5, Q9UL62] | 3.59

biological target: T5, MPP2, Q14168; assay: holdup assay; set-up: key: below the threshold = too weak to quantify, mostly under pKd 3.1 to 4; conditions: plain residues with an end cap or a label only (N-terminal biotin on a linker: ado-ado)

Binder | pKd
SKENVQETQI [LRRC4B, Q9NT99] | below the threshold
GQEEQVTTRL [TRPC5, Q9UL62] | below the threshold

biological target: NHERF2_2, Q15599; assay: holdup assay; set-up: key: below the threshold = too weak to quantify, mostly under pKd 3.1 to 4; conditions: plain residues with an end cap or a label only (N-terminal biotin on a linker: ado-ado)
Sequence (Q15599 142-238): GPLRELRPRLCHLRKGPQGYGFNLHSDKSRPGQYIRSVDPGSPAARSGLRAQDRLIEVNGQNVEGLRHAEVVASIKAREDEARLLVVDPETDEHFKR

Binder | pKd
SKENVQETQI [LRRC4B, Q9NT99] | 3.88
GQEEQVTTRL [TRPC5, Q9UL62] | 4.71

biological target: NHERF4_1, Q86UT5-2; assay: holdup assay; set-up: key: below the threshold = too weak to quantify, mostly under pKd 3.1 to 4; conditions: plain residues with an end cap or a label only (N-terminal biotin on a linker: ado-ado)
Sequence (Q86UT5 other isoform, or with tags, fused parts or gaps): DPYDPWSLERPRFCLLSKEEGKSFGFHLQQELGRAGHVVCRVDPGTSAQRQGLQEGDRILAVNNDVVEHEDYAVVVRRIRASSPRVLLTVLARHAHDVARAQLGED

Binder | pKd
SKENVQETQI [LRRC4B, Q9NT99] | below the threshold
GQEEQVTTRL [TRPC5, Q9UL62] | 4.38

biological target: NHERF4_2, Q86UT5; assay: holdup assay; set-up: key: below the threshold = too weak to quantify, mostly under pKd 3.1 to 4; conditions: plain residues with an end cap or a label only (N-terminal biotin on a linker: ado-ado)
Sequence (Q86UT5 220-308): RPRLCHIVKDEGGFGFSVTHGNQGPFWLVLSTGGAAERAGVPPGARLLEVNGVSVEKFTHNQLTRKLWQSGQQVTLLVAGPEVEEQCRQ

Binder | pKd
SKENVQETQI [LRRC4B, Q9NT99] | below the threshold
GQEEQVTTRL [TRPC5, Q9UL62] | below the threshold

biological target: T6, PARD3B_1, Q8TEW8; assay: holdup assay; set-up: key: below the threshold = too weak to quantify, mostly under pKd 3.1 to 4; conditions: plain residues with an end cap or a label only (N-terminal biotin on a linker: ado-ado)

Binder | pKd
SKENVQETQI [LRRC4B, Q9NT99] | below the threshold
GQEEQVTTRL [TRPC5, Q9UL62] | 4.5

biological target: T7, PDZD7_3, Q9H5P4; assay: holdup assay; set-up: key: below the threshold = too weak to quantify, mostly under pKd 3.1 to 4; conditions: plain residues with an end cap or a label only (N-terminal biotin on a linker: ado-ado)

Binder | pKd
SKENVQETQI [LRRC4B, Q9NT99] | 5.39
GQEEQVTTRL [TRPC5, Q9UL62] | 4.89

biological target: T8, PTPN13_1, Q12923; assay: holdup assay; set-up: key: below the threshold = too weak to quantify, mostly under pKd 3.1 to 4; conditions: plain residues with an end cap or a label only (N-terminal biotin on a linker: ado-ado)

Binder | pKd
SKENVQETQI [LRRC4B, Q9NT99] | below the threshold
GQEEQVTTRL [TRPC5, Q9UL62] | below the threshold

biological target: SCRIB_3, Q14160; assay: holdup assay; set-up: key: below the threshold = too weak to quantify, mostly under pKd 3.1 to 4; conditions: plain residues with an end cap or a label only (N-terminal biotin on a linker: ado-ado)
Sequence (Q14160 999-1103): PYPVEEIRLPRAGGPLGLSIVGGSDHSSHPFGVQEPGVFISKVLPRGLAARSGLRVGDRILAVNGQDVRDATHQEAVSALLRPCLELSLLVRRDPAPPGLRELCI

Binder | pKd
SKENVQETQI [LRRC4B, Q9NT99] | 4.88
GQEEQVTTRL [TRPC5, Q9UL62] | 4.22

biological target: T9, SHANK1, Q9Y566; assay: holdup assay; set-up: key: below the threshold = too weak to quantify, mostly under pKd 3.1 to 4; conditions: plain residues with an end cap or a label only (N-terminal biotin on a linker: ado-ado)

Binder | pKd
SKENVQETQI [LRRC4B, Q9NT99] | 3.98
GQEEQVTTRL [TRPC5, Q9UL62] | 5.61

biological target: T10, SIPA1L2, Q9P2F8; assay: holdup assay; set-up: key: below the threshold = too weak to quantify, mostly under pKd 3.1 to 4; conditions: plain residues with an end cap or a label only (N-terminal biotin on a linker: ado-ado)

Binder | pKd
SKENVQETQI [LRRC4B, Q9NT99] | below the threshold
GQEEQVTTRL [TRPC5, Q9UL62] | below the threshold

biological target: T11, SNTG2, Q9NY99; assay: holdup assay; set-up: key: below the threshold = too weak to quantify, mostly under pKd 3.1 to 4; conditions: plain residues with an end cap or a label only (N-terminal biotin on a linker: ado-ado)

Binder | pKd
SKENVQETQI [LRRC4B, Q9NT99] | 4.81
GQEEQVTTRL [TRPC5, Q9UL62] | 4.44

From paper PMC9482650, “Quantitative fragmentomics allow affinity mapping of interactomes” (Nature Communications, 2022)
